Holding throughout (assay): AlphaScreen or HTRF
The target of one assay is His-PSD95(1–392) (UniProt P31016 1-392).
Assay [1] concerns the target T1, GST-PSD95(1–392) (UniProt P31016 1-392).
Assay [2] deals with T1, GST-PSD95(1–392). This is another data set of the same source.

The values below come from publication PMC4539046 (Neuropharmacology, 2015).

Where no end group is shown, it is not given here.

SLKPGTVLPPPPYRHRNTVV (peptide, UniProt Q15303 1289-1308, looked up, not fully specified (N-terminus); also: biotin (position not given here)) [Biot-ErbB4(1289–1308)]: the EC50 with His-PSD95(1–392) turned out to be 10 nM. That is a double-digit nanomolar value.

B1: His-nNOS(1–299) (domain or fragment, UniProt P29476-1 1-299, looked up)
chain: MEENTFGVQQIQPNVISVRLFKRKVGGLGFLVKERVSKPPVIISDLIRGGAAEQSGLIQAGDIILAVNDRPLVDLSYDSALEVLRGIASETHVVLILRGPEGFTTHLETTFTGDGTPKTIRVTQPLGPPTKAVDLSHQPSASKDQSLAVDRVTGLGNGPQHAQGHGQGAGSVSQANGVAIDPTMKSTKANLQDIGEHDELLKEIEPVLSILNSGSKATNRGGPAKAEMKDTGIQVDRDLDGKSHKAPPLGGDNDRVFNDLWGKDNVPVILNNPYSEKEQSPTSGKQSPTKNGSPSRCPR
With B1, the EC50 with GST-PSD95(1–392) [1] was found to be 30 nM. This counts as double-digit nanomolar.

B2: nNOS(1–130) without any tag (domain or fragment, UniProt P29476-1 1-130, looked up)
chain: MEENTFGVQQIQPNVISVRLFKRKVGGLGFLVKERVSKPPVIISDLIRGGAAEQSGLIQAGDIILAVNDRPLVDLSYDSALEVLRGIASETHVVLILRGPEGFTTHLETTFTGDGTPKTIRVTQPLGPPT
B2 returned an IC50 with GST-PSD95(1–392) [2] of 30 nM.
